Assay results from the DeepSol protein solubility set.

test: soluble on expression in E. coli; label from the status in PepcDB or PDB records

Which “soluble on expression in E. coli” value does the source give for “MVKAQLQKLIEQVATEHDLPERVVERALKNAIITAIRKEKKIRDELEVEFTDEGIKVYVVRRKGNKKFKFPLDISPEDLNRLAAYAAKEEFYKELERAEQERGYLEFKELEGEIVYGIVRKVLENGDVIVDLGRIDAILPKREQLPTDNFKTGDKVKALLLEVRKRRGEPVLILSRTHPNFLRKLLEQEVPEIKEGLVEIKAVARIPGERAKVAVEAKEMKMDPVGIVVGLKGMRIQKVSEELGGEKIDVIRWSDDIAELIKRALAPAHPEKIKLFPYEKRAEVAVPEEELSLAIGKKGINVKLASKLTGWHIDVLSTKDFEKLEELRKKEDEGQTS” here?
The value was “soluble”.

Which “soluble on expression in E. coli” value does the source give for “MVKFIESELILLKKEVDEMWTLVYNQLDRAGEAVMTLDKELAQQVMVRERRVNAFELKIDSDIEDIIALYNPVAIDLRFVLAMLKINTNLERLGDFAEGIARFVIRCKEPVLDADLLARLRLGEMQAEVLSMLELAKRALNEENIEMATAVFGKDNLLDDINAEATGILADYIREHPETAHTCVDLVGVFRKLERSGDHITNIAEEIVFFIDAKVLKHSGKVDENYPKS” here?
Its value is “not soluble”.

Which “soluble on expression in E. coli” value does the source give for “MVKKLYIKTNGCQMNEYDSSKMAEVLYASHGLVKTDQVEDADVILLNTCSIREKAQEKVFSQLGQWREYKAKNPHVLIGVGGCVASQEGSDIIKRAPFVDIVFGPQTLHRLPALLNERLEKNKSVVDISFPEIEKFDHLPAPRAEGPTAFVSIMEGCSKYCSFCVVPYTRGEEISRPFDDVLAECYQLASQGVREINLLGQNVNDYRGIMDNGDIADLALLIHYIAAIDGIGRIRFTTSHPLAFSENLINAYAEVPELANHLHLPVQSGSDRILSLMKRGYTALEFKSKIRKLRKIRPDIRLSTDIIVGFPGETDKDFQDTMDLVHEIGFDTSFSFIYSPRPGTPAANLPDDTPMEIKKQRLQILQNRLLMNAARYSESMIGSKQKILVTGFSKKSSQQLSGRTECNRVVNFDGPPHLIGQFIDVQISDALPNSLRGRLLEKEMQPALEHHHHHH” here?
The value was “soluble”.

Which “soluble on expression in E. coli” value does the source give for “MVKSIENVKLTKGLFYNSQKKGNDVILALDIDRLLAPYYEAANLPPKKRSYGGWEEREIRGHSLGHWLSAAAAMYETTGDKALLERIDRAVQELATIQDDVGYVGGVKRAHFDEMFSGEFQVGHFNIAGTWVPWYNLHKLFAGLIDVHQLTGHSLALTVVTKLADWAKKGTDQLTDDQFQRMLICEHGGMNEAMADLYTLTGHKDYLQLAIRFCHWAVLEPLANGIDELEGKHANTQIPKVIGAAKLFEITGDDTYRAIAEFFWRQVTNDRSYIIGGNSNSEHFGPANKETLGVETAETCNTYNMLKLTEHLFRWNRSSQLMDYYEKALYNHILASQDPDSGMKTYFVSLQPGHFKVYSSLEESFWCCFGTGLENPARYTRTIYDRDDRHIYVNLFMASEIHLKDLQVQIRQETNFPETDRTKLTFVKADGVSIKLHIRVPEWVAGPVTARINGKETFSESGADYLTIEREWQKGDEIEVHLPMELRIYEAKDDSHKVGIMYGPIVLAGTFGKDHFPLEHHHHHH” here?
The value was “not soluble”.

With “MVKSVLCFGDSLTWGSNAETGGRHSHDDLWPSVLQKALGSDVHVIHEGLGGRTTAYDDHTGDCDRNGARLLPTLLHSHAPLDMVIIMLGTNDMKPAIHGSAIVAMKGVERLVKLTRNHVWQVSDWEAPDVLIVAPPQLCETANPFMGAIFRDAIDESAMLASVYRDLADELDCGFFDAGSVARTTPVDGVHLDAENTRAIGRGLEPVVRMMLGL” as the sequence, how does the “soluble on expression in E. coli” value read?
The value was “soluble”.

With “MVKTAVLMATYNGEIFISEQLDSIRQQTLKPDYVLLRDDCSTDETVNVVNNYIAKHELEGWKIVKNDKNLGWRLNFRQLLIDVLAYEVDYVFFSDQDDIWYLDKNERQFAIMSDKPQIEVLSADVDIKTMSTEASVPHFLTFSSSDRISQYPKVYDYQTFRPGWTIAMKRDFAQAIADNWTFGANISHDNLIETTASIIGNGYNLNESVGVHIRYGGNASGNSKFVLNWKSPKTQHITGLKTFVDFYETMQKVVNKYQNDVALNQRLAFEKERLEASKLSLIHNSAFVIKNWRLYNSNSGRMRDLLFAFKKLEHHHHHH” as the sequence, how does the “soluble on expression in E. coli” value read?
Its value is “soluble”.

With “MVKVYGSTVDNESRCTHYQTPLDIIAIKFKCCNKYYPCYKCHNEHESHKIQRWQANEFHEKAILCGVCNHEMTINDYMMIEACPKCDAHFNNRCKYHYHLYFEILEHHHHHH” as the sequence, how does the “soluble on expression in E. coli” value read?
Its value is “soluble”.

With “MVKWQATLSTTEPYNYIGIQNVRQGNRNTEVLEAILVENALPLDLTGCEVFFESVIDNKYPIQRAAKIVNAKKGIIQYTFDEYSMQSLHRQEAYFSIHKGDNLIGSTQNFSYFVVNAASKTEGEMGSYWQSIEDLIADMTAFINENKGDFTAWMNARKEEFEKWRKNQQDTFEAWRNGQETDYLKWFESIKDILKTIDPGGTMLAELMDARVDIQGVRHNSLSERLLADMNYLYHRLEERLYTIKYGNVNTLEILEDDSFSKNHEVEVLGTVNHPIEEGALIIATVDDSKQNVFTIEGVDNG” as the sequence, how does the “soluble on expression in E. coli” value read?
The value was “not soluble”.

With “MVLGLASFPESLSSQSETATQPRRPSVKWDLGSDYRKGTEETTASGSNFRRERLDSQPDLGLHVQPQIYFLRPRSPLPKLLFSLMNTNDANVKKLLPKSHLSRVIIRDNLNAQRICEMEMKASDKTKRKMSYLYDHLKKKFMMDQLRKMIRWRRDSQSTQDYLDKERV” as the sequence, how does the “soluble on expression in E. coli” value read?
Its value is “not soluble”.

With “MVLLSFDIEEFDVPLEQGYKDFPSEEQLRISRQGTEAILHILRKKGVRSTFFSTVTFWESLPEDLRKGIYTDGHELASHGVFHSSFSKEHLAESRQKLASLWDGTDVCGFRMPRMMPVGDAEIAEAGYLYNSSLNPTCIPGRYNHLSAPRLPYFDKYGVLQMPSSVTPLLRFPLFWLSLHHLPLRLYIRMIRHTVRRDNYLNLYFHPWEFAEISCLPDCKLSYTVTHNSGEKMCRRLEAVIDTLLADGCSFGTFSDYYRFQKQG” as the sequence, how does the “soluble on expression in E. coli” value read?
Its value is “not soluble”.

With “MVLVVGSGAGGATLARELAIRGIDVTVIERGPCVKDSDAFLCYDEAPDVDILRTSCAGGSTLVAAGNAVRVLENTLKDYGVDITEDLHAIEAELRVRELPDTHTGRGTALIMDAAESLGLGVKKMPKFIDPDKCRPCGKCSFGCPRAAKWSARRFLDEAVEHGAVLIEETEAKNIIVRNGSVSGLRTSRGDFHDETVVLAAGAIETPRILMRAGIDAGNGLFMDTFVTVGGILEGVGFCDEVQMNALIELDGVILSPHFSTLLFPEDDRRNVLGIMVKIADERSGRVEADRIVKHHTVRDISLLSGGAAIAGSILSRAGVGAGTLRSTRPRGAHPGGTASLGEVVDENLETSIEGLFVADASVLPAAPGAPPILTIMALARRLARHIVSVLLEHHHHHH” as the sequence, how does the “soluble on expression in E. coli” value read?
Its value is “not soluble”.

Which “soluble on expression in E. coli” value does the source give for “MVMETESKFHVLAVDDSLFDRKMIERLLQKSSCQVTTVDSGSKALEFLGLRVDDNDPNALSTSPQIHQEVEINLIITDYCMPGMTGYDLLKKVKESAAFRSIPVVIMSSENVPARISRCLEEGAEEFFLKPVKLADLTKLKPHMMKTKLKKESEKPVAIEEIVVSKPEIEEEEEESSVIEILPLHQEIESEQLEPMLSSNKRKAMEEVVSTDRSRPKYNDITTSV” here?
The value was “not soluble”.

Which “soluble on expression in E. coli” value does the source give for “MVMIISTMEPQVSNGPTSNTSNGPSSNNRNCPSPMQTGATTDDSKTNLIVNYLPQNMTQEEFRSLFGSIGEIESCKLVRDKITGQSLGYGFVNYIDPKDAEKAINTLNGLRLQTKTIKVSYARPSSASIRDANLYVSGLPKTMTQKELEQLFSQYGRIITSRILVGQVTGVSRGVGFIRFDKRIEAEEAIKGLNGQKPSGATEPITVKFANNPSQKSSQALLSQLYQSPNRRYPGPLHHQAQRFRLDNLLNMAYGVKRFSPITIDGMTSLVGMNIPGHTGTGWCIFVYNLSPDSDESVLWQLFGPFGAVNNVKVIRDFNTNKCKGFGFVTMTNYDEAAMAITSLNGYRLGDRVLQVSFKTNKAHKS” here?
Its value is “soluble”.

With “MVNAIRTPDQRFSNLDQYPFSPNYLDDLPGYPGLRAHYLDEGNSDAEDVFLCLHGEPTWSYLYRKMIPVFAESGARVIAPDFFGFGKSDKPVDEEDYTFEFHRNFLLALIERLDLRNITLVVQDWGGFLGLTLPMADPSRFKRLIIMNACLMTDPVTQPAFSAFVTQPADGFTAYKYDLVTPSDLRLDQFMKRWAPTLTEAEASAYAAPFPDTSYQAGVRKFPKMVAQRDQACIDISTEAISFWQNDWNGQTFMAIGMKDKLLGPDVMYPMKALINGCPEPLEIADAGHFVQEFGEQVAREALKHFAETE” as the sequence, how does the “soluble on expression in E. coli” value read?
Its value is “soluble”.

For “MVNFVAKDIYTKDSIQRGGQDVIIEKHEIQIDQITSGKVNIFTFYRNRKQIDDHFLRLQEPSLTANYFFHFHFDAESLHLLQKEFPSVYPYDGSETIHDWTEKMKAELQHQIQTGKWNKRVRIGNRILDVVFTWCDEDIVE”, which “soluble on expression in E. coli” value is on record?
The value was “not soluble”.

For “MVNSKVLNTLEYQQVKQQLAPYLVSATGQQALNELHPMTSVADIQRALDETNDGAEVYRLKGGIPVARLADIKPHMKRLAIGATLNGSELGQVGRVLRTTRAITRFFAELLEDAPELEHHHHHH”, which “soluble on expression in E. coli” value is on record?
Its value is “not soluble”.

For “MVNTIGFDREKYIEMQSQHIRERREALGGKLYLEMGGKLFDDMHASRVLPGFTPDNKIAMLDRIKDEVEILVCINAKDLERHKIRADLGISYEEDVLRLVDVFRDRGFLVEHVVLTQLENDNRLALAFIERLQRLGIKVSRHRVIPGYPTDMDRIVSDEGFGLNEYAETTRDLVVVTAPGPGSGKLATCLSQVYHEHKRGVAAGYAKFETFPIWNLPLEHPVNLAYEAATVDLNDANVIDHFHLAAYGEQTVNYNRDVEAFPLLKTLLERLMGESPYQSPTDMGVNMAGNCISDDAACRHASEQEIIRRYFKALVEEARTGKDSTQSDRAAVVMAKAGIKASQRVVVEPARQVEERTSLPGCAIELVDGSIITGATSDLLGCSSSMLLNALKHLAGIDDAIHLLSPESIEPIQTLKTVHLGSSNPRLHTDEVLIALSVSAATDSNAQKALDQLKNLRGCDVHTTTILGSVDEGIFRNLGVLVTSDPKFQKNKLYQKR”, which “soluble on expression in E. coli” value is on record?
Its value is “not soluble”.

Which “soluble on expression in E. coli” value does the source give for “MVPPTINTGKNITTERAVLTLNGLQIKLHKVVGESRDDIVAKMKDLAMDDHKFPRLPGPNPVSIERKDFEKLKQNKYVVSEKTDGIRFMMFFTRVFGFKVCTIIDRAMTVYLLPFKNIPRVLFQGSIFDGELCVDIVEKKFAFVLFDAVVVSGVTVSQMDLASRFFAMKRSLKEFKNVPEDPAILRYKEWIPLEHPTIIKDHLKKANAIYHTDGLIIMSVDEPVIYGRNFNLFKLKPGTHHTIDFIIMSEDGTIGIFDPNLRKNVPVGKLDGYYNKGSIVECGFADGTWKYIQGRSDKNQANDRLTYEKTLLNIEENITIDELLDLFKWE” here?
The value was “soluble”.

Which “soluble on expression in E. coli” value does the source give for “MVQKEGVLRVITRNSPATYFQDRNGETGFEYELAKRFAERLGVELKIETADNLDDLYAQLSREGGPALAAAGLTPGREDDASVRYSHTYLDVTPQIIYRNGQQRPTRPEDLVGKRIMVLKGSSHAEQLAELKKQYPELKYEESDAVEVVDLLRMVDVGDIDLTLVDSNELAMNQVYFPNVRVAFDFGEARGLAWALPGGDDDSLMNEVNAFLDQAKKEGLLQRLKDRYYGHVDVLGYVGAYTFAQHLQQRLPRYESHFKQSGKQLDTDWRLLAAIGYQESLWQPGATSKTGVRGLMMLTNRTAQAMGVSNRLDPKQSIQGGSKYFVQIRSELPESIKEPDRSWFALAAYNIGGAHLEDARKMAEKEGLNPNKWLDVKKMLPRLAQKQWYAKTRYGYARGGETVHFVQNVRRYYDILTWVTQPLEHHHHHH” here?
The value was “soluble”.

Which “soluble on expression in E. coli” value does the source give for “MVQNNDVDGAFGLLNRLMDSEGMLKIIRRTQFYQKPYMQRKTLSMEASTAIFNEDMNRKMKFLVRKNRPDKHPGQVTS” here?
Its value is “not soluble”.

With “MVQSLNTKVDLVIDATAFTGLTDYGQIMIGDRGFEFYHAKDPRKFIQIPWEEVDYVLASVMFKGKWIPRYAIQTKKNGTYTFASKEPKRVLRAIREYVDPDHMVQSLSFFDVIKRGILSIGKKKK” as the sequence, how does the “soluble on expression in E. coli” value read?
Its value is “not soluble”.

With “MVQTVLNSVWLWRSVLLRLTFSDSGSFLGQSFLLFSSGFWSVLVEQLEGFSSGVSVQSVLELSNGWRNLQSDGQDLLLSLQSDIFWPFDVSGQVSLWLDSLANTEVLWSRVSQWVLSLVRLSGLSTEWSWSNFLTWSHLFFQLSCSLY” as the sequence, how does the “soluble on expression in E. coli” value read?
Its value is “soluble”.
